What was measured:
MS2 coat protein [1] = assay: apparent KD of MS2 coat protein, switch ON state; designed switch direction (-1 OFF switch, 1 ON switch): -1; higher = weaker reporter binding; settings: FMN input: 0 or 200 uM; Eterna round: R93 (includes R88 designs)
How it was run: (§1)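 Apparent KD per design is the median of normalised cluster binding-curve fits. Designed RNA switches transcribed on-chip from Illumina sequencing clusters were titrated with SNAP-549-labelled MS2 coat protein in twofold steps from 0.7 or 1.5 nM to 3 µM, with 0.8–1.5 h down to 10–20 min per step. Buffer: 100 mM Tris-HCl pH 7.5, 80 mM KCl, 4 mM MgCl2, without or with constant ligand.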

MS2 coat protein [2] = assay: apparent KD of MS2 coat protein, switch OFF state (with FMN for OFF switches, without FMN for ON switches); designed switch direction (-1 OFF switch, 1 ON switch): -1; higher = weaker reporter binding; settings: FMN input: 0 or 200 uM; Eterna round: R93 (includes R88 designs)
How it was run: as §1

Sequence | apparent KD of MS2 coat protein (MS2 coat protein [1]) | apparent KD of MS2 coat protein (MS2 coat protein [2])
AACUGACAUGAGGAUCACCCAUGUCAGGAUAUGACUUCGAAAAAAAAAAAAAACGAUGUCAGAAGGGACAUGGA [Design 66: Sub-opt N] | 17.5 nM | 27.2 nM
AAGAAGUCAGGAUAUACAUGAAAGAAAGAAAAGAAAAGAAAACAUGAGGAUCACCCAUGUAGAAGGGACAAGAA [EteRNA is fun!] | 54.5 nM | 50.5 nM
AGUUGGCGAGGAUAUACAUGAGGAUCACCCAUGUAAGAGUAAAGAGUGAGAAAGAGAAGUAGAAGGCGCUGACA [Ruby 57] | 53 nM | 247 nM
AAAAAGGCAGGAUAUACAUGAGGAUCACCCAUGUAAAAAAAAAAAAAAGGGAAAAAAAGUAGAAGGGCCAAAAA [Along] | 31.1 nM | 53.4 nM
AAGAAGUGAGGAUAUCGAAGACAGACGAAAAGUCUGUCAAACGAGAAGGCACAUGAGGAUCACCCAUGUGGAAA [What have we learned so far? 64% 4] | 30.5 nM | 34.6 nM
AAAGACAGAGGAUAUACAUGAGGAUCACCCAUGUGGCGAAAAAAAAUCCAUUUGGCAUGUAGAAGGCUGUAUGA [Orerzadi] | 66.9 nM | 51.3 nM
AAAAAACAUGAGGAUCACCCAUGUCAGGAUAUCUGUAUUCAAUCCUCGGAUUGAAUACAGAGAAGGGACAUAAA [Ex1: 605] | 46.2 nM | 126 nM
CUGGAGUCAGGAUAUACGAACAUGUCGCCAGAUGUCAAGGUACAUGAGGAUCACCCAUGUAGAAGGGAGGAGAA [salish99-Ex2-33] | 95.2 nM | 84.8 nM
AAAAAGUCAGGAUAUGCGAAGGCGUCUGAUAGACGAGGCUAGCAGAAGGGACAUGAGGAUCACCCAUGUAAAAA [Mat - Exclusion 4 - Rerun - D81] | 50.5 nM | 45 nM
AAAAAGUGAGGAUAUACAUGAGGAUCACCCAUGUGAAGGGAAGAAAGAAAGAAAGAAAGUAGAAGGCACAAAAA [Default title] | 51.1 nM | 222 nM
CGCUAGUCAGGAUAUACGAACAUGUCAAAAGACGUGAAAAAACAUGAGGAUCACCCAUGUAGAAGGGACUAGCG [Mat - Exclusion 2 - JL mod - D17] | 16.2 nM | 14.9 nM
AAAAAGUGAGGAUAUACAUGAAAAAAAAAAAAAAAAAAAAAACAUGAGGAUCACCCAUGUAGAAGGCGCAAAAA [GC GU GC sandwich] | 31.5 nM | 43.1 nM
AAAACGUGAGGAUAUGCACCAAAAAAGAAAAAACGGGUACGACAUGAGGAUCACCCAUGUAGAAGGCACGAAAA [Frodo Flailing 8 - Jieux - Exclusion 2] | 35.3 nM | 37.2 nM
AAAAAGUGAGGAUAUUCGGAAGGGAAAGCGCAAACCCAACCGAAGAAGGCACAUGAGGAUCACCCAUGUGAAAA [Ecls4-III 65% - Early + late G segment 1] | 21.2 nM | 33 nM
AGAAACGUAGGAUAUACAUGAGGAUCACCCAUGUAAAGAAAGAAGGGAGCCACAAGAAGUAGAAGGACGAAGAA [JR_Exc003_Sub004] | 33.4 nM | 131 nM
GGUUGGCGAGGAUAUACAUGAGGAUCACCCAUGUGAGAGAAAAAAGUGAUAAAGAAAAGUAGAAGGCGCUGACG [salish99-ex3-32] | 120 nM | 2470 nM
GGAAAACAUGAGGAUCACCCAUGUAAGGAUAUGCUAGGGAGGGAAAAAAUUUCGCCAGGCAGAAGGUACUAAAG [Janelle Amethyst 18 Mod 6 - Jieux - Exclusion 1] | 23.5 nM | 44.7 nM
AAAAAGUGAGGAUAUUCGGAAGGGAAAGCGCAAACCCAACCGAAGAAGGCACAUGAGGAUCACCCAUGUGGAAG [Mat - Exaclusion 4 - Eli mod - D57] | 29.5 nM | 30.2 nM
